{
  "source": "a protein production outcome set (Wang et al. 2014)",
  "data": [
    {"experiment": "label from the status in PepcDB records", "values": [
      {"sequence": "MALGPEGAADLQRQLTEWTVFTAHCWQARSPQTEVLIATSGGTSEAWQQWLGAVEVQPQAEGDLGDRLHQAFQDSWQVGCDRTVIIGSDCPQIEPHHLDEAFAVLQQADVVIGPASDGGYWLIGLSQPQPQLFQNIDWGSDRVLVQTLEAAQVADLQVAQLESLSDLDRPEDLNLWQPQPQLSVIITTLNEAANLPQTLALIGDAPVETLVVDGGSQDATVAIAQAWGAKVIHSPAGRGRQFNQGAAAAHGNILLFLHGDTRLPPRFWEHVLQTLQPPQVVAGAFQLQIDSPDWRLRWIERGVRWRSHWLQQPYGDQALFLSRDRWRAIGGFSTGPLLEDYRFVRQLRRQGTIAIASAAVMTSARRWQRRGVLQTTLLNQLILLAHHCGVSDQQLARWYRLEHHHHHH", "protein production": "not failed"},
      {"sequence": "MALKATIYKATVNVADLDRNQFLDASLTLARHPSETQERMMLRLLAWLKYADERLQFTRGLCADDEPEAWLRNDHLGIDLWIELGLPDERRIKKACTQAAEVALFTYNSRAAQIWWQQNQSKCVQFANLSVWYLDDEQLAKVSAFADRTMTLQATIQDGVIWLSDDKNNLEVNLTAWQQPS", "protein production": "not failed"},
      {"sequence": "MALKDTGSGGSTILPISEMVSASSSPGAPLAAAPGPCAPSPFPEVVELNVGGQVYVTKHSTLLSVPDSTLASMFSPSSPRGGARRRGDLPRDSRARFFIDRDGFLFRYVLDYLRDKQLALPEHFPEKERLLREAEFFQLTDLVKLLSPKVTKQNSLNDECCQSDLEDNVSQGSSDALLLRGAAAGAPSGSGAHGVSGVVGGGSAPDKRSGFLTLGYRGSYTTVRDNQADAKFRRVARIMVCGRIALAKEVFGDTLNESRDPDRQPEKYTSRFYLKFTYLEQAFDRLSEAGFHMVACNSSGTAAFVNQYRDDKIWSSYTEYIFFRPPQKIVSPKQEHEDRKRDKVTDKGSESGTSCNELSTSSCDSHSEASTPQDNPANTQQAAAHQPNTLTLDRPSRKAPVQWMPPPDKRRNSELFQSLISKSRETNLSKKKVCEKLSVEEEMKKCIQDFKKIHIPDCFPERKRQWQSELLQKYGL", "protein production": "failed"},
      {"sequence": "MALLAIDLDMFGHGSAGQVLGRTDVDRVEYQYSTKSLLSIYIFYEETCGFFIDEEKKVFVVFELDESQAYKYAYIIGENICLKKLDLGEVRTFSCPIVCSSSYVPS", "protein production": "failed"},
      {"sequence": "MALMSDKFLSIVIPAYNSEKYIEKNLMFLSRQTSNNFEVIVVDDGSTDNTCEVSEACLENFKINHRVIRCEENRGQSVARNIGINYSRGKYILFLDSDDFAENNLVQILERNMFNEPDIVFFDYKRIKEGDSVNVNIAQNFEFGKIKSGEEVFNAYKDNKIRLWTGSLVYNKEFLNKNKLRFLEGAHGAEDLNFIFKALLSSKKVRGIEDSLVFYCQRGDSLTNNPDIYKNITVVESMEDVAKFIDENKLDKKLKEAIEKEFTCEHIMYQILGYLNSETKKDTLSVLKNKNVKKYLKKATIKTNRYGRSMYTYMKMAAYFPNLFIKTYLKNTGKLEHHHHHH", "protein production": "not failed"},
      {"sequence": "MALNTNQLFAYLNRGDIAEFKFSPLFTTLFFPNVATFSTQNIMLDTLDIEEVTMSAFCSPMVGSQVQRDKGYETSTIKPGYMKPKHEIDPTKTIMRMAGEDPAQLNDPTYRRMRLITGNMRRQINAIKARVEWLAVNAVTTGKNIIEGEGIERYEIDWKIPEKNIIEQADGKKWSEQDKETHYPIYDIELYADQAGCPANVMIMGAEVWRTLRSFKKFRELYDLSRGSESAAELACKNLGEVVSFKGYLGDLALIVYSGKYTDSDGTEKYFLEPDLLVLGNTNNKGLVAYGAIMDQEAVRTGATQNMFYPKNWIEDGDPAIEYVQTHSAPQPVPADIRKFVTVKIA", "protein production": "not failed"},
      {"sequence": "MALPDRRAEGVAASLAGALIPAFLAAQDRIIEMVPFRTSATLFAFVLTIVFLAFALRVLFSFRDVRSAAVETALFATGFLYVPLLLTHLAWLRALPDGVGWIFLVLVIVMSGDTAAYYVGSNLGRRKLYPSVSPNKSVEGAIGGLLGSLAGTFVARLTFFPGLTVLDCIATALLLGVLGQVGDLFESLLKRSFGVKDSGTIVPGHGGILDRLDSILFAVPAAYYYALFVFMNR", "protein production": "failed"},
      {"sequence": "MALPPILRDRLRLPVIASPLFIISNPDLVIAQCKAGIVGSFPSLNARPLSQLDEWLARITEELAAWDKANPDMPSAPFAVNQIVHKTNNRLEDDIAMCVKYKVPLVITSLGAREDVNQAIHSYGGITLHDVITDRFARKAIEKGADGLIPVAAGAGGHAGTLSPFALIQEIRQWFDGPVALSGSIASGRSILAAQAMGADLAYVGSAFIATKEANAVEGYKQMIVDSKADDILYSNLFTGVHGNYLRPSVIKAGLDPENLPESDPSKMNFGSGGNQDAKAWRDIWGCGQGIGAIDNVLTAGELVAKFAAEYEQAKAELAAKTALTAGKHLAFAAE", "protein production": "failed"},
      {"sequence": "MALPPYDPNFKFAFSLGTIAKHQDYDESASAAVVALDLISSARFALKLDSVYTEYSAKYVVDNAAGSHSGRKLTVKDCLEFALNKGGIPKAEDWPRLGSVITPPSSYKPDLVSMKGQVIEPQTIEEACDMVVDQPVGAKLHVFKPHIELQQDASAITGIYCGTSGEPASYVGLRDAIIVGVEKIQGKSIGTVKVWYKKFIFLKVAMSRWFQLYSPDGTHTGIKRTDYLVDFCVPRLSMD", "protein production": "failed"},
      {"sequence": "MALQLGPHELQHVFSFLEARDLLRAAQVNKVWNEVSMTNELWRQLCLRRWAPCKALPVVLGTQTWRQYYFCRSELEFRVKSGRPQDFICKAISGHTGTIDQLAYVSPHEYRFDEKARSVVCTVSSDCTVRAWDLQEGTEMWSSPVQPAPLVNLVAYPQLQLVVTVDTQGLIRGWNTDTGSEWAFFSLPTSCSSMEACDHPEGSFLLVACAEGTLYTMTVPQLQVVFRVATFPHTPVSLMCSPDKQWVLVSAQDSDLGPKVFYTQPLLHPSEDRLPASATLPIRLSSRACWAPDEAARLMVTHRDDSGVHLVITTFELKANKSRDRVSILAQQLASFPLPDTMTPHLMQGHGSQVILLTSGSELVLFNIHGLQLMAFQDHQKPITSVWVDPDRVITAALDLSLCVYVWNKENTSPILKSCYHLLGGSHRWASGFTHVKSDSRSIAGVEARSTGTSILRSYCYKVQLG", "protein production": "failed"},
      {"sequence": "MALSIIENGKKLESTIDFSNFLKEFKKYRLRVLLVVLAITLAAFPLINGMTPQYTATATIVLKAKTDNSTPIDQVEDFDATQAEYYPTQAELLQSKTVIEAAAKKLDLINSPIFEDEDKDENIPQSEEEHLYSIVKAIKKKLSISPVRFSQLVHVSYESKDSDMSALVANAVVESYIEQQEQRKIEKTQQAQQWNNTRMSELKEKIKQQKADIDKFLSDNGLLTYQGVDGFETEQLALVNDRLATAKEKRITAKANYNTISEALGYPLEDVATLPSISNHAQLQDLRIALIQAKRTLFDLQKMYGPKNRQILEANAQIKAIELQTTALLKELKTGLYKEYQAAIERENKYRALLAEQKKDFTALAAKKDTYNTMKADLDKTQELYEKIFLRSKEQELTVLYREPVARLLDAATPPHKPSKPNKALLLIMVCAMTIIFSLLFIIIKSALNKSINNLTQVNTRLGLQGIGELISLNYIDELALFTKNFFKNSYSAETVHAIRTTILLDDKPWPIIGLTSTESTESNELNSYLLAYSFSQDRSTLLIDLDYRKEISLTEAILMQKENEIDAKKAENSDDFETVPTSTVMGVAEALEQKHPINDCLIKIENNLTFLPRGTLTETPLITLASEELGRQLKELSKQFEQVIVNLPAMTESKDAQLIARHLSGVIYTVQAGELSANHILANIEKVKQVQTPIMGVILTDVQNDELETEEAKQQLIHQNDDILG", "protein production": "failed"},
      {"sequence": "MALTEEEKSINIVDLFIYLIAHWKWFVLSILLFGGYFWYSYCETPFVYSRTAIVMIKTPANSRSAMQLNNADFIGQVNVASEILQFKSKELMRKVIDRLHADVSYMVRDGLRPRELYTDSPVRVAFLEAGLDEVCSLSVIPKNKQQVELADFSLDELEQRKTVNLNDTVDTPLGKLIVFTAENYSESYFDRPIKVTSKSREGMVAFWLSNLTIRQMSGDAALLSMTMNDLSPTRAADILDMLITVYNEEAIKDKNRISVNTAEFIKERLQIIEHELGSVETDIEDLKRANNGVDINTVAGMYIQDSRQYESSIKELDTQLQLVSFIKQYLQDSNKDDELIPSNIGLSDLSIESQISRYNETLLRRNRLVSGSSSNNPVVQELNRIMQTMKQNIYMAVDNLSKSLRLKKQDYMRQESHVRQKVQAVPGKQREMLSIERQQKVKESLYIFLLNKREENALSQAMVDNNARILDPVSGSNLPISPNKYKKMILGVGCGIIVPSVILLLILMLDTRVHNRKEVEAVVSAPFLADIPQTAKASVDAHEVVVRARGLDPLSEAFRILRTNLGFMLSQAQDHKIITLTSFNIGAGKTFVSVNLAASLVQTKKKVLILDLDLRKGKMSEMAHSKHVKGVAHYLSNPSIVVDDLILRDAFGEGLDLIPIGVIAPNPTELLLSRRLDELMDRLRELYDYIIVDNVPIGLVADASVVNRISDLTLFIVRVGKIDRRQLPELERLYQEHKLTNMAVVLNGTKKGSSGYGYGYGYGQGYGYKNAEKKKGLFGRKKKKSRK", "protein production": "failed"}
    ]}
  ]
}
